Results from article doi:10.1101/803833.

Target: human SNAP-tagged GLP-1R (glucagon-like peptide-1 receptor) on HEK293-SNAP-GLP-1R cells (human) (UniProt P43220)
Test: FRET or BRET

Chain of UniProt P43220 (P43220 24-463): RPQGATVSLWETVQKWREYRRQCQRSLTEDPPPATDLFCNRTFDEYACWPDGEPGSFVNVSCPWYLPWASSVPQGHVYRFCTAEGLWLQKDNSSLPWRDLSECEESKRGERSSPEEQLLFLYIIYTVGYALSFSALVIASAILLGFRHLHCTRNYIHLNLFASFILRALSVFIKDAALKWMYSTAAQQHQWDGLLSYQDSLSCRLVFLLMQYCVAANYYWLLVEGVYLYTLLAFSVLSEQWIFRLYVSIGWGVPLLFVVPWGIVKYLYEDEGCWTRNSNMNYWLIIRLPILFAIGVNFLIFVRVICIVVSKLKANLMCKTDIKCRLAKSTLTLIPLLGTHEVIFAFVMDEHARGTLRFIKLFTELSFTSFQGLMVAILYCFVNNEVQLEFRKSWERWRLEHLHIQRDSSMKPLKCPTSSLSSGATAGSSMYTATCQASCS

| Substance | log Kd |
| --- | --- |
| exendin-4 (from UniProt P26349 48-87) (peptide) | -9.2 |
| lixisenatide (peptide) | -9 |
